Data published in PMC7450098, “The maturase HydF enables [FeFe] hydrogenase assembly via transient, cofactor-dependent interactions” (The Journal of Biological Chemistry, 2020).
Where “and” joins values, the source holds several entries; their conditions need not be identical. Identical values can stand only once.

What was measured:
HydF (TmHydF) = molecular target: T1, HydF (TmHydF) (Thermotoga maritima, UniProt Q9WYS6); assay: in vitro reconstitution; spectroscopy; GEMMA; type: binding; settings: anaerobic reconstitution of apo-protein
T1 construct: gene TM_0445; full length, expressed in E. coli Rosetta (II), heat step and phenyl-Sepharose; about 45 kDa; mainly dimer, some tetramer; apo-form reconstituted with [4Fe-4S]
T1 sequence (Q9WYS6 1-404): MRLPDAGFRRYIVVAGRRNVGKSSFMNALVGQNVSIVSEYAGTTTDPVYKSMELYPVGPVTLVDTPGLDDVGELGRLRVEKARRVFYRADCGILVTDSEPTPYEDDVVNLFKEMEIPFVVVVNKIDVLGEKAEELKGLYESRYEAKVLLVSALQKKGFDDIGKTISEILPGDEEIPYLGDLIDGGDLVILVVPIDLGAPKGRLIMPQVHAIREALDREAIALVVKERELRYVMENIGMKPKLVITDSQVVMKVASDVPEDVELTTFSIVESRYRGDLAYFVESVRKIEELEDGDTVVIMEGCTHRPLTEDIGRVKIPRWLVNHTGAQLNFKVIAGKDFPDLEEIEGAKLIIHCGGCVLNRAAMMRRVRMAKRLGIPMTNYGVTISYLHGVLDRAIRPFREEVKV

HydA1 (CrHydA1) = molecular target: T2, HydA1 (CrHydA1) (Chlamydomonas reinhardtii, UniProt Q9FYU1); assay: in vitro reconstitution; spectroscopy; GEMMA; type: binding; settings: anaerobic reconstitution of apo-protein
T2 construct: gene hyd1; His-tagged, purified recombinant; theoretical mass 49 kDa; monomer; apo-form reconstituted to [4Fe-4S]-HydA1
T2 sequence (Q9FYU1 56-497): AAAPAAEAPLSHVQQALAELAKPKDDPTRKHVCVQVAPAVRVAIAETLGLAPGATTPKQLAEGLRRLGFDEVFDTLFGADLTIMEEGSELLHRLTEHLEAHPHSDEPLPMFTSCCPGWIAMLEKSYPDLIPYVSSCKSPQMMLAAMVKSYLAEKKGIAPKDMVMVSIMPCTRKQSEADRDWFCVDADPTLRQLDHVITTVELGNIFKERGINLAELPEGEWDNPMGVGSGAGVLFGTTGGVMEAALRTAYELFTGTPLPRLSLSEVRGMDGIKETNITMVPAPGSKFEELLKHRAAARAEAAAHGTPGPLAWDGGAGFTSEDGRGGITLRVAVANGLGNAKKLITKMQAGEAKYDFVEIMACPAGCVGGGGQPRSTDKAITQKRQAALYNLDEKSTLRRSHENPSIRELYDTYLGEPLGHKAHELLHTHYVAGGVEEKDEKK

[1] = molecular target: HydF from Thermotoga maritima (Thermotoga maritima); assay: GEMMA (gas-phase electrophoretic macromolecule analysis); isolated HydF or HydA1, each as apo, [4Fe4S] and holo form; 0.02 µg/µl protein in 20 mM ammonium acetate, 0.005% Tween-20
[2] = molecular target: HydF from Thermotoga maritima (Thermotoga maritima); assay: GEMMA (gas-phase electrophoretic macromolecule analysis); mixtures of metal-free apo-HydF with HydA1 (apo, [4Fe4S] or holo); 0.02 µg/µl each protein in 20 mM ammonium acetate, 0.005% Tween-20
[3] = molecular target: HydA1 [FeFe] hydrogenase from Chlamydomonas reinhardtii (Chlamydomonas reinhardtii); assay: GEMMA (gas-phase electrophoretic macromolecule analysis); mixtures of metal-loaded HydF ([4Fe-4S]-HydF or holo-HydF) with HydA1 (apo, [4Fe4S] or holo); 0.02 µg/µl each protein in 20 mM ammonium acetate, 0.005% Tween-20
[4] = molecular target: HydF from Thermotoga maritima (Thermotoga maritima); assay: as above
[5] = molecular target: HydF from Thermotoga maritima (Thermotoga maritima); assay: SEC + other: GEMMA (gas-phase electrophoretic macromolecule analysis); fraction P1 (63 ml) of apo-HydF from Superdex-200 (50 mM Tris-HCl pH 8.0, 150 mM NaCl), then wide-scan GEMMA at 0.02 µg/µl protein in 20 mM ammonium acetate, 0.005% Tween 20; 1 mM DTT added to samples
[6] = molecular target: HydF from Thermotoga maritima (Thermotoga maritima); assay: SEC + other: GEMMA (gas-phase electrophoretic macromolecule analysis); fractions P2 of apo-HydF (70 ml) and apo-HydA1 (75 ml) from Superdex-200 (50 mM Tris-HCl pH 8.0, 150 mM NaCl), then wide-scan GEMMA at 0.02 µg/µl protein in 20 mM ammonium acetate, 0.005% Tween 20; 1 mM DTT added to samples

Row | stoichiometry N [1] | stoichiometry N [2] | stoichiometry N (HydF per HydA1) [3] | stoichiometry N [4] | stoichiometry N [5] | stoichiometry N [6] | Compound | in vitro reconstitution; spectroscopy; GEMMA (HydF (TmHydF)) | in vitro reconstitution; spectroscopy; GEMMA (HydA1 (CrHydA1))
1 |  |  |  |  |  |  | [S]12[Fe]3[S]4[Fe]1[S]1[Fe]2[S]3[Fe]41 [[4Fe-4S] cluster] | The [4Fe4S] clusters in apo-HydA1, apo-HydF, and the truncated HydF apo-proteins were reconstituted | The [4Fe4S] clusters in apo-HydA1, apo-HydF, and the truncated HydF apo-proteins were reconstituted
2 | 2 and 4 and > 6 | 2 and 4 | 2 | 2 and 4 | 4 and 2 and 6 | 2 | HydF from Thermotoga maritima (natural protein) |  | 
